We go through 4 molecules from US20260139049A1 (PEDIATRIC IMMUNITY AND HEALTHCARE GUANGZHOU BIOTECHNOLOGY, published 2026).

Changes are numbered by the printed parent chain.

Assay [1] deals with T1, human CLDN9 (human, UniProt O95484 1-217).
T1 construct: whole, on cells; also called HEK293T-CLDN9
T1 sequence (looked up): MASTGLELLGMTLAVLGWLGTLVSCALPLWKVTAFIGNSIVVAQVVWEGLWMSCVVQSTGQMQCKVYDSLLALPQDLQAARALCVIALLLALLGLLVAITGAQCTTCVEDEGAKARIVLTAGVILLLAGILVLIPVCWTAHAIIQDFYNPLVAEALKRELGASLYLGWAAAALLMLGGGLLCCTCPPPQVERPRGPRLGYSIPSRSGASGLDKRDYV
The assay is described as follows: FACS on 293T-CLDN9 cells.

Assay [2] concerns the target T2, mouse CLDN6 (mouse, UniProt Q9Z262 1-219).
T2 construct: whole, on cells; also called CHO-K1-Mouse CLDN6
T2 sequence (looked up): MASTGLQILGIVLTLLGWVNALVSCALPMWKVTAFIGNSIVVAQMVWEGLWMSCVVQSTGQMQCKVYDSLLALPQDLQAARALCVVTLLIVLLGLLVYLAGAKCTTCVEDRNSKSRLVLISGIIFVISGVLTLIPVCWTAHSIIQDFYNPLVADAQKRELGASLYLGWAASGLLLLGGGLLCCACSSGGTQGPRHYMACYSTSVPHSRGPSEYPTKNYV
The assay is described as follows: FACS on CHO-K1-Mouse CLDN6 cells (FIG. 15).

Assay [3] deals with T3, human CLDN6 (human, UniProt P56747 1-220).
T3 construct: whole, on cells; four-transmembrane protein; also called claudin-6; HEK293T-CLDN6
T3 sequence (looked up): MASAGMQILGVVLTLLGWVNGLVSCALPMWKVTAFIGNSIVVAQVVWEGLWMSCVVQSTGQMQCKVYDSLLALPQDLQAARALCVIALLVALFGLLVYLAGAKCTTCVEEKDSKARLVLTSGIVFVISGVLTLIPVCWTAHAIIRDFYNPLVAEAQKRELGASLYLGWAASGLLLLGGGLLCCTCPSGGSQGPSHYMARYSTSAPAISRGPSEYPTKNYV
The assay can be described thus: FACS on HEK293T-CLDN6 cells. The procedure: (§1) To detect a binding capacity of a chimeric or humanized antibody to CLDN6, a CLDN6-expressing cell line HEK293T-CLDN6 and a CLDN6-negative control cell line HEK293T were washed three times with PBS. 1×10⁵ test cells and 50 μL of an antibody solution to be tested were added to a 96-well plate, and incubated at 4° C. for 1 h. The cells were then washed three times with PBS. […] Finally, cells were washed three times with PBS, and signals were read using FACS.

The target in assay [4] is T3, human CLDN6. The assay is described as follows: FACS on HEK293T-CLDN6 cells. The procedure:
as §1
(§2) An EC50 value (a concentration of an antibody that binds to half of binding sites at equilibrium) is calculated through nonlinear regression.
This is another data set of the same source.

For assay [5], the target named is T4, monkey CLDN6 (Cyno CLDN6) (monkey (Cyno)).
T4 construct: whole, on cells; also called CHO-K1-Cyno CLDN6
The assay is described as follows: FACS on CHO-K1-Cyno CLDN6 cells.

In assay [6] the target is T2, mouse CLDN6. The assay can be described thus: FACS on CHO-K1-Mouse CLDN6 cells.
For assay [7], the target named is T3, human CLDN6. The assay can be described thus: FACS on PA-1 tumour cells; target on the cells taken as CLDN6. The procedure:
(§3) The specific binding of a chimeric antibody to a tumor cell was detected by FACS, and an EC50 value was calculated accordingly to evaluate an inhibitory effect of the chimeric antibody on the tumor cell.
(§4) 50 μL of an antibody to be tested was added to a 96-well plate, then 1×10⁵ cells were added to each well, and incubation was conducted at 4° C. for 1 h. Cells were washed three times with PBS. […] Finally, cells were washed three times with PBS, and signals were read using FACS. A binding capacity of the antibody to each tumor cell was analyzed based on detection data.

For assay [8], the target named is T3, human CLDN6. The assay can be described thus: FACS on HepG2 tumour cells; target on the cells taken as CLDN6. The method, then: as §3, §4
Assay [9] deals with T3, human CLDN6. The assay can be described thus: FACS on 293T-CLDN6 cells, 10 µg/mL.
The target of assay [10] is T1, human CLDN9. The assay is described as follows: FACS on 293T-CLDN9 cells, 10 µg/mL. The method, then:
50 μL of an antibody to be tested was added to a 96-well plate, then 1× 10⁵ cells were added to each well, and incubation was conducted at 4° C. for 1 h. Cells were washed three times with PBS. […] Finally, cells were washed three times with PBS, and signals were read using FACS. Binding capacities of the antibody to CLDN9, CLDN3, and CLDN4 were analyzed separately based on detection data.

In assay [11] the target is T3, human CLDN6. The assay is described as follows: FACS on HEK293T-CLDN6 cells. The method, then: as §1, §2
The source holds these as a separate data set.

B1: 20A3-2A7 (antibody, human IgG1, kappa, V domains shown)
VH: QAYLQQSGAELVRSGASVKMSCKASGYTFTSYNMHWVKQTPGQGLEWIGYIYPGNGGTNYNQKFKGKATLTADTSSSTAYMQISSLTSEDSAVYFCARWKYYDKTTHYALDYWGQGTLVTVSS
VL: DIVLTQSPASLAVSLGQWATISCRASKSVSTSGYSYIHWHQQKPGQPPKLLIYLASNLESGVPARFSGSGSGTDFTLNIHPVEEEDAATYYCHHSRELPFTFGSGTKLEIKR
notes: chimeric: murine variable regions on human IgG1 constant regions
Consider B1, for which the binding result in [1] and in [2] was “binds” each time.

B2: 47A5B10 (antibody, human IgG1, kappa, V domains shown)
VH: QGQLQQSGAELARPGASVKLSCKASGYTFTSYGISWVKQRTGQGLEWIGEIYPRSGNTYHNEKFKGKATLTADKSSSTAYMELRSLTSEDSAVYFCARSSYDYYAMDYWGQGTSVTVSS
VL: EIVVTQSPALMAASPGEKVTITCSVSSIISSSKLHWYQQKSETSPKPWIYGTSNLASGVPIRFSGSGSGTSYSLTISSMEAEDAATYYCQQWSSYPLTFGAGTKLELKR
notes: as for B1
Broadly, the EC50 is the concentration that produces a half-maximal response. In turn, B2 displayed an FACS signal in assay [3] of 33000. In addition, the EC50 in [4] turned out to be 0.674 µg/mL; in [5], 0.343 µg/mL; in assay [6], 0.633 µg/mL; in assay [7], 0.737 µg/mL; in assay [8], 1.38 µg/mL.

B3: 51C10-M1 (antibody, human IgG1, kappa, V domains shown)
VH: EVQLQQSGPELVKPGASVKMSCKASGYTFTDYNMHWVKKSHGKSLEWIGYVNPNNAATSYNQKFKGKATLTVNKSSSTAYMELRSLTSEDSAVYNCARWDGYVYYYGLDYWGQGTSVTVSS
VL: DIQMTQSSSYLSVSLGGRVTITCKASDHINNWLAWYQQKPGNAPRLLISGATSLETGVPSRFSGSGSGKDYTLSITSLQTEDVATYYCQQYWSTPYTFGGGTKLEIKR
notes: 51C10H4 with G of NG in heavy-chain CDR2 changed to A; also called improved antibody 51C10-M1
In the case of B3, the Geom.Mean stood at 41400 in [9] and 1170 in assay [10].

B4: RecA101 (antibody, human IgG1, kappa, V domains shown)
VH: B3 VH with A56G
VL: B3 VL with S93N
notes: heavy chain of 51C10H4 with light chain of 54B5A7; IgG1; also called improved chimeric monoclonal antibody RecA101; recombined chimeric monoclonal antibody RecA101
Molecule B4 displayed an EC50 in assay [11] of 0.73 µg/mL. For the same molecule, the Geom.Mean in assay [9] was 41800; in assay [10], 1740.
